Here are results for two molecules from US20240026028A1 (JIANGSU HENGRUI PHARMACEUTICALS, published 2024).

For test [1], the target named is HER3 recombinantly expressed on CHO-K1 cells (human, UniProt P21860 20-643). Put plainly: cell-based or functional assay.
In test [2] the target is T1, HER3 protein (free, coated on the ELISA plate) (UniProt P21860 20-643, limits assumed).
T1 construct: also called free HER3 protein
As to the kind of experiment: ELISA, HER3 protein coated on the plate, antibody titrated. The protocol: HER3 protein was diluted to 1 μg/mL with pH 7.4 PBS buffer (Shanghai BasalMedia Technologies Co., LTD., B320) and added to a 96-well microplate at 100 μL/well. The plate was incubated at 4° C. overnight. After the liquid was discarded, 300 μL of 5% skim milk (BD, 232100) diluted with PBS was added to each well for blocking, and the plate was incubated at 37° C. for 2 h. After the blocking was completed, the blocking solution was discarded; after the plate was washed 3 times with PBST buffer (pH 7.4 PBS containing 0.1% tween-20), 100 μL of a gradient diluted antibody solution was added to each well, and the plate was incubated at 37° C. for 1 h. After the incubation was completed, the plate was washed 3 times with PBST buffer, and 100 μL of 1:8000 diluted Mouse Anti-HuMan IgG (H+L) (Jackson ImmunoResearch, 209-035-088) was added to each well. The plate was incubated at 37° C. for 1 h. After the plate was washed 3 times with PBST buffer, 100 μL of TMB chromogenic substrate (KPL, 5120-0077) was added to each well, and the plate was incubated at room temperature for 10-15 min. The reaction was terminated by adding 50 μL of 1 M H₂SO₄ to each well. The absorbance readings at 450 nm were taken on a microplate reader, and the binding curves of the antibodies to antigen were fitted with software, as shown in FIG. 1.

Test [3] concerns the target T2, HER3 expressed by MCF7 cells (human, UniProt P21860 20-1342).
T2 construct: whole, on cells; Endogenous HER3 on MCF7 cells; also called cells expressing HER3 protein
Put plainly: flow cytometry on MCF7 cells, geometric mean fluorescence. How it is done:
MCF7 cells (ATCC, HTB-22) were suspended in FACS buffer (2% fetal bovine serum (Gibco, 10099141) pH 7.4 PBS (Sigma, P4417-100TAB)) to give a 1×10⁶ cells/mL cell suspension, which was then added to a 96-well round-bottom plate at 100 μL/well. After centrifugation and removal of the supernatant, the test antibody that was diluted with FACS buffer to different concentrations was added at 50 μL/well. The plate was incubated in the dark in a 4° C. refrigerator for 1 h. The plate was washed 3 times with FACS buffer by centrifugation at 300 g, and Alexa Fluor 488 Goat anti-HuMan IgG (H+L) (invitrogen, A-11013) at working concentration was then added. The plate was incubated in the dark in a 4° C. refrigerator for 40 min. The plate was washed 3 times with FACS buffer by centrifugation at 300 g and tested on a BD FACSCantoII flow cytometer for geometric mean fluorescence intensity.

T2 sequence (P21860 20-1342): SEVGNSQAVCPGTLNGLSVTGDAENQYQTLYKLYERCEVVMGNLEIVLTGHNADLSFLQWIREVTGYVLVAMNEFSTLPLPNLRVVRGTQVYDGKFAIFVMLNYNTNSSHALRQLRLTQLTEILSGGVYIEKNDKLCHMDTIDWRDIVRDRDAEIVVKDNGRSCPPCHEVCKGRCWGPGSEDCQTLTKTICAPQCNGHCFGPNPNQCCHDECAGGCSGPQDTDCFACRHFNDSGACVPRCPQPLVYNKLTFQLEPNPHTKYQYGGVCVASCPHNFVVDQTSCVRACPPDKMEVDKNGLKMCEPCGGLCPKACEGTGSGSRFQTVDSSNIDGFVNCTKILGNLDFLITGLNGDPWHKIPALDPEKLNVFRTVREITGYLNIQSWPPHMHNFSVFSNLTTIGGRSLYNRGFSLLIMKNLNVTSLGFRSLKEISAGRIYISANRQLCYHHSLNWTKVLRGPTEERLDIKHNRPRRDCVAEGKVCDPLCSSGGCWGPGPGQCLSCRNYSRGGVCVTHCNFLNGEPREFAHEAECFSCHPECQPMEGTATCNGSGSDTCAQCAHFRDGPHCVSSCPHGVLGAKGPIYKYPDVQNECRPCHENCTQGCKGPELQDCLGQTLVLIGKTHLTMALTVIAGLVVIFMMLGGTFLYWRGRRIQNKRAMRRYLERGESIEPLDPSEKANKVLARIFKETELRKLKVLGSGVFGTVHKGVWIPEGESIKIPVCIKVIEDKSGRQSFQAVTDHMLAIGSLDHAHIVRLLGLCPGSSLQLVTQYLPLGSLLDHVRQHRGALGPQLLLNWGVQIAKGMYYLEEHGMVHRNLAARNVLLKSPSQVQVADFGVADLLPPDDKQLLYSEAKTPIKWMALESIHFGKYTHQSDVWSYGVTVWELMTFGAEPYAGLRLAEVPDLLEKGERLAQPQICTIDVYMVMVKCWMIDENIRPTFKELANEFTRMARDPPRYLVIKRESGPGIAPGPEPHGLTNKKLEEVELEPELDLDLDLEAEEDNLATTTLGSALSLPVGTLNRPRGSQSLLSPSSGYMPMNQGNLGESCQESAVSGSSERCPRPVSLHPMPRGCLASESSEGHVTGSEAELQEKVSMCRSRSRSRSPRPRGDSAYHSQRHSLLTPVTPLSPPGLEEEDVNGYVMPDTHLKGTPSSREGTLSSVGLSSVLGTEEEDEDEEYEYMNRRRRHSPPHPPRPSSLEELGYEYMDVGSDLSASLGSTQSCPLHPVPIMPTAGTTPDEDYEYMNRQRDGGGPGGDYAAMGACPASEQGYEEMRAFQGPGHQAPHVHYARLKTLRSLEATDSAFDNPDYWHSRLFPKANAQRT
HER3 recombinantly expressed on CHO-K1 cells, sequence (P21860 20-643): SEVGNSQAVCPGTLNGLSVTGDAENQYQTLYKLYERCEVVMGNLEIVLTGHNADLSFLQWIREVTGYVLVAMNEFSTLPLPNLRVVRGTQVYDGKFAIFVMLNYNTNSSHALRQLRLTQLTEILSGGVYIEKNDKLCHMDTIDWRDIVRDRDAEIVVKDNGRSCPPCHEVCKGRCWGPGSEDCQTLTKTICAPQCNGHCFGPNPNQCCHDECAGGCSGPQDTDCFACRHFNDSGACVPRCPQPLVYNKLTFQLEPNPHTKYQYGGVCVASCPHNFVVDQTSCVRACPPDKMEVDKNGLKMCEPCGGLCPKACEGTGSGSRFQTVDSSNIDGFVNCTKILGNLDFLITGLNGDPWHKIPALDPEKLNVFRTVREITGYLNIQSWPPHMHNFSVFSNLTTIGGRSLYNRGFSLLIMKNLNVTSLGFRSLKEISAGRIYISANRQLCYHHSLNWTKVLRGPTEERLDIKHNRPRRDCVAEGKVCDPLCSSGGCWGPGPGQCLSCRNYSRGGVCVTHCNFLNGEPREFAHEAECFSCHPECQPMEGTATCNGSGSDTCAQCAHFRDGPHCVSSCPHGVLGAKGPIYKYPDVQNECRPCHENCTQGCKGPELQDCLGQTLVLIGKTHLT
T1 sequence (P21860 20-643 limits assumed): as the sequence (P21860 20-643) above

B1: positive control antibody U3 (antibody, human IgG1, kappa, V domains shown)
VH: QVQLQQWGAGLLKPSETLSLTCAVYGGSFSGYYWSWIRQPPGKGLEWIGEINHSGSTNYNPSLKSRVTISVETSKNQFSLKLSSVTAADTAVYYCARDKWTWYFDLWGRGTLVTVSS
VL: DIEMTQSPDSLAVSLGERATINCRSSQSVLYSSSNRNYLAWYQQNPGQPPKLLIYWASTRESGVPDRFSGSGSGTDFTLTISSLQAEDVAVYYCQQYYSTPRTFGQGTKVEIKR
notes: also called U1-59 (WO2007077028A2)
With B1, in test [1], the “IC50 (nM) (DT3C antibody endocytosis assay, cell killing)” value worked out at 2.81 nM. Besides, the EC50 in test [2] was 0.56 nM; in test [3], 0.249 nM.

B2: fully human antibody molecule HER3-29 (antibody, human IgG1, kappa, V domains shown)
VH: QVQLVQSGGGLVQPGRSLRLSCAASGFTFDDYAMHWVRQAPGKGLEWVSGISWNSGSIGYADSVKGRFTISRDNAKNSLYLQMNSLRAEDTALYYCAKEGLPGLDYWGQGTLVTVSS
VL: DIQMTQSPSSLSASIGDRATITCRASQHVGTYLNWYQQKPGKTPKLLISGAANLQSGVPSRFSGSGSGTDFTLTISSLQPEDFATYYCQQSYNTPPFSFGQGTKVEIKR
notes: Human IgG1 / kappa; From a fully human natural phage library, expressed in HEK293 and Expi-CHO-S cells; also called antibody HER3-29
For the molecule B2, the “IC50 (nM) (DT3C antibody endocytosis assay, cell killing)” value in test [1] amounted to 0.51 nM. The EC50 in test [2] turned out to be 0.14 nM; in test [3] it was 0.057 nM.
